Here are results for 50 substances from patent US20210238260A1.

One assay deals with plasma purified human AT-III (antithrombin III) in complex with unfractionated heparin (human) (UniProt P01008). The assay can be described thus: residual FIXa activity on Mesyl-D-CHG-Gly-Arg-AMC after timed incubation with AT-III/UFH (0-500 nM AT-III, 1 uM UFH); kapp from K0.5.
For “FIXa-R318Y/R338E/T343R/R403E/E410N (from UniProt P00740 47-191; P00740 227-461) (enzyme)”, the kapp (apparent second-order rate constant for inhibition) was 32000 M⁻¹ s⁻¹.

As for “FIXa-R318Y/R338E/T412A (from UniProt P00740 47-191; P00740 227-461) (enzyme)”, the kapp (apparent second-order rate constant for inhibition) was 350000 M⁻¹ s⁻¹.

Take “FIXa-R318Y/R338E/Y345A/R403E/E410N (from UniProt P00740 47-191; P00740 227-461) (enzyme)”: the kapp (apparent second-order rate constant for inhibition) came out at 7900 M⁻¹ s⁻¹.

“FIXa-T343R/N346D (from UniProt P00740 47-191; P00740 227-461) (enzyme)”: the kapp (apparent second-order rate constant for inhibition) worked out at 1.3e+06 M⁻¹ s⁻¹.

Consider “FIXa-T343R/N346Y (from UniProt P00740 47-191; P00740 227-461) (enzyme)”, for which the kapp (apparent second-order rate constant for inhibition) turned out to be 4.2e+06 M⁻¹ s⁻¹.

On to “FIXa-Y155F/K228N/K247N/N249S/R318Y/R338E/R403E/E410N (from UniProt P00740 47-191; P00740 227-461) (enzyme)”, for which the kapp (apparent second-order rate constant for inhibition) is 1100 M⁻¹ s⁻¹.

For the substance “FIXa-Y155F/K247N/N249S/N260S/R318Y/R338E/R403E/E410N (from UniProt P00740 47-191; P00740 227-461) (enzyme)”, the kapp (apparent second-order rate constant for inhibition) was found to be 430 M⁻¹ s⁻¹.

On to “FIXa-Y155F/K247N/N249S/R318Y/R338E/R403E (from UniProt P00740 47-191; P00740 227-461) (enzyme)”, for which the kapp (apparent second-order rate constant for inhibition) amounted to 810 M⁻¹ s⁻¹.

For “FIXa-Y155F/K247N/N249S/R318Y/R403E/E410N (from UniProt P00740 47-191; P00740 227-461) (enzyme)”, the kapp (apparent second-order rate constant for inhibition) stood at 7300 M⁻¹ s⁻¹.

Regarding “FIXa-Y155F/K247N/N249S/R338E/R403E/E410N (from UniProt P00740 47-191; P00740 227-461) (enzyme)”, the kapp (apparent second-order rate constant for inhibition) turned out to be 42000 M⁻¹ s⁻¹.

Regarding “FIXa-Y155F/N260S/R318Y/R338E/R403E/E410N (from UniProt P00740 47-191; P00740 227-461) (enzyme)”, the kapp (apparent second-order rate constant for inhibition) came to 2100 M⁻¹ s⁻¹.

Take “FIXa-Y155F/R318Y/R338E/N346D/R403E/E410N (from UniProt P00740 47-191; P00740 227-461) (enzyme)”: the kapp (apparent second-order rate constant for inhibition) came out at 1600 M⁻¹ s⁻¹.

Consider “FIXa-Y155F/R318Y/R338E/T343R/R403E/E410N (from UniProt P00740 47-191; P00740 227-461) (enzyme)”, for which the kapp (apparent second-order rate constant for inhibition) came to 8600 M⁻¹ s⁻¹.

The target in another assay is antithrombin III (plasma purified human AT-III), in complex with unfractionated heparin (human) (UniProt P01008). As to the kind of experiment: AT-III/UFH inhibition of FIXa; residual activity on Pefafluor FIXa substrate, varied incubation time.
Regarding “FIXa A103N/N105S/K247N/N249S/R318Y/R338E/R403E/E410N (from UniProt P00740 47-191; P00740 227-461) (enzyme)”, the kapp (apparent second-order rate constant for inhibition) was 1700 M⁻¹ s⁻¹.

Consider “FIXa A103N/N105S/R318Y/R338E/R403E/E410N (from UniProt P00740 47-191; P00740 227-461) (enzyme)”, for which the kapp (apparent second-order rate constant for inhibition) was 2600 M⁻¹ s⁻¹.

As to “FIXa D85N/K228N/R318Y/R338E/R403E/E410N (from UniProt P00740 47-191; P00740 227-461) (enzyme)”, the kapp (apparent second-order rate constant for inhibition) worked out at 3000 M⁻¹ s⁻¹.

“FIXa D104N/K106S/I251S/R318Y/R338E/R403E/E410N (from UniProt P00740 47-191; P00740 227-461) (enzyme)”: the kapp (apparent second-order rate constant for inhibition) was determined as 5700 M⁻¹ s⁻¹.

Regarding “FIXa D104N/K106S/R318Y/R338E/R403E/E410N (from UniProt P00740 47-191; P00740 227-461) (enzyme)”, the kapp (apparent second-order rate constant for inhibition) amounted to 3900 M⁻¹ s⁻¹.

As to “FIXa D104N/K106S/Y155F/K247N/N249S/R318Y/R338E/R403E/E410N (from UniProt P00740 47-191; P00740 227-461) (enzyme)”, the kapp (apparent second-order rate constant for inhibition) worked out at 1000 M⁻¹ s⁻¹.

Another assay addresses antithrombin III (AT-III), plasma purified human, in complex with unfractionated heparin (UFH) (human) (UniProt P01008). The assay can be described thus: inhibition of FIXa by AT-III/UFH, pseudo-first-order, residual activity on Mesyl-D-CHG-Gly-Arg-AMC.
Take “FIXa-K228N/I251S/R318Y/R338E/R403E/E410N (from UniProt P00740 47-191; P00740 227-461) (enzyme)”: the kapp (second-order rate constant for inhibition) turned out to be 900 M⁻¹ s⁻¹.

“FIXa-K228N/K247N/N249S/R318Y/R338E/T343R/R403E/E410N (from UniProt P00740 47-191; P00740 227-461) (enzyme)” had a kapp (second-order rate constant for inhibition) of 5300 M⁻¹ s⁻¹.

With “FIXa-K247N/N249S/R318Y/R338E/T343R/R403E (from UniProt P00740 47-191; P00740 227-461) (enzyme)”, the kapp (second-order rate constant for inhibition) was found to be 1700 M⁻¹ s⁻¹.

“FIXa-K247N/N249S/R318Y/R338E/T343R/R403E/E410N (from UniProt P00740 47-191; P00740 227-461) (enzyme)” displayed a kapp (second-order rate constant for inhibition) of 9600 M⁻¹ s⁻¹.

Regarding “FIXa-K247N/N249S/R338E/T343R/R403E/E410N (from UniProt P00740 47-191; P00740 227-461) (enzyme)”, the kapp (second-order rate constant for inhibition) amounted to 86000 M⁻¹ s⁻¹.

Consider “FIXa-N260S/R318Y/R338E/T343R/R403E/E410N (from UniProt P00740 47-191; P00740 227-461) (enzyme)”, for which the kapp (second-order rate constant for inhibition) came to 2600 M⁻¹ s⁻¹.

“FIXa-R318Y/R338E/T343R/R403E (from UniProt P00740 47-191; P00740 227-461) (enzyme)” gave a kapp (second-order rate constant for inhibition) of 5800 M⁻¹ s⁻¹.

Turning to “FIXa-R318Y/R338E/T343R/R403E/E410S (from UniProt P00740 47-191; P00740 227-461) (enzyme)”, the kapp (second-order rate constant for inhibition) amounted to 9900 M⁻¹ s⁻¹.

“FIXa-R318Y/T343R/R403E/E410N (from UniProt P00740 47-191; P00740 227-461) (enzyme)” gave a kapp (second-order rate constant for inhibition) of 93000 M⁻¹ s⁻¹.

“FIXa-R338E/T343R/R403E (from UniProt P00740 47-191; P00740 227-461) (enzyme)” had a kapp (second-order rate constant for inhibition) of 190000 M⁻¹ s⁻¹.

“FIXa-Y155F/I251S/R338E/T343R/R403E (from UniProt P00740 47-191; P00740 227-461) (enzyme)” came in with a kapp (second-order rate constant for inhibition) of 160000 M⁻¹ s⁻¹.

“FIXa-Y155F/K228N/I251S/R318Y/R338E/R403E/E410N (from UniProt P00740 47-191; P00740 227-461) (enzyme)” came in with a kapp (second-order rate constant for inhibition) of 1300 M⁻¹ s⁻¹.

“FIXa-Y155F/K228N/K247N/N249S/R318Y/R338E/T343R/R403E/E410N (from UniProt P00740 47-191; P00740 227-461) (enzyme)” displayed a kapp (second-order rate constant for inhibition) of 2200 M⁻¹ s⁻¹.

In turn, “FIXa-Y155F/K247N/N249S/R318Y/E410N (from UniProt P00740 47-191; P00740 227-461) (enzyme)” gave a kapp (second-order rate constant for inhibition) of 130000 M⁻¹ s⁻¹.

Consider “FIXa-Y155F/K247N/N249S/R318Y/R338E (from UniProt P00740 47-191; P00740 227-461) (enzyme)”, for which the kapp (second-order rate constant for inhibition) amounted to 27000 M⁻¹ s⁻¹.

For “FIXa-Y155F/K247N/N249S/R318Y/R338E/T343R/E410N (from UniProt P00740 47-191; P00740 227-461) (enzyme)”, the kapp (second-order rate constant for inhibition) amounted to 220000 M⁻¹ s⁻¹.

“FIXa-Y155F/K247N/N249S/R318Y/R338E/T343R/R403E (from UniProt P00740 47-191; P00740 227-461) (enzyme)” had a kapp (second-order rate constant for inhibition) of 2300 M⁻¹ s⁻¹.

The substance “FIXa-Y155F/K247N/N249S/R318Y/R338E/T343R/R403E/E410N (from UniProt P00740 47-191; P00740 227-461) (enzyme)” had a kapp (second-order rate constant for inhibition) of 8700 M⁻¹ s⁻¹.

“FIXa-Y155F/K247N/N249S/R318Y/R403E (from UniProt P00740 47-191; P00740 227-461) (enzyme)” displayed a kapp (second-order rate constant for inhibition) of 2100 M⁻¹ s⁻¹.

“FIXa-Y155F/K247N/N249S/R338E/R403E (from UniProt P00740 47-191; P00740 227-461) (enzyme)” displayed a kapp (second-order rate constant for inhibition) of 13000 M⁻¹ s⁻¹.

For “FIXa-Y155F/K247N/N249S/R338E/T343R (from UniProt P00740 47-191; P00740 227-461) (enzyme)”, the kapp (second-order rate constant for inhibition) was 1.2e+07 M⁻¹ s⁻¹.

In turn, “FIXa-Y155F/K247N/N249S/R338E/T343R/R403E/E410N (from UniProt P00740 47-191; P00740 227-461) (enzyme)” registered a kapp (second-order rate constant for inhibition) of 89000 M⁻¹ s⁻¹.

With “FIXa-Y155F/K247N/N249S/T343R/R403E (from UniProt P00740 47-191; P00740 227-461) (enzyme)”, the kapp (second-order rate constant for inhibition) came out at 140000 M⁻¹ s⁻¹.

“FIXa-Y155F/N260S/R318Y/R338E/T343R/R403E/E410N (from UniProt P00740 47-191; P00740 227-461) (enzyme)” had a kapp (second-order rate constant for inhibition) of 2600 M⁻¹ s⁻¹.

Consider “FIXa-Y155F/N260S/R338E/T343R/R403E (from UniProt P00740 47-191; P00740 227-461) (enzyme)”, for which the kapp (second-order rate constant for inhibition) came to 40000 M⁻¹ s⁻¹.

Take “FIXa-Y155F/R318Y/R338E/T343R/E410N (from UniProt P00740 47-191; P00740 227-461) (enzyme)”: the kapp (second-order rate constant for inhibition) was 780000 M⁻¹ s⁻¹.

Substance “FIXa-Y155F/R318Y/R338E/T343R/R403E (from UniProt P00740 47-191; P00740 227-461) (enzyme)” returned a kapp (second-order rate constant for inhibition) of 2800 M⁻¹ s⁻¹.

In turn, “FIXa-Y155F/R318Y/T343R/R403E/E410N (from UniProt P00740 47-191; P00740 227-461) (enzyme)” showed a kapp (second-order rate constant for inhibition) of 55000 M⁻¹ s⁻¹.

For “FIXa-Y155F/R338E/T343R/R403E (from UniProt P00740 47-191; P00740 227-461) (enzyme)”, the kapp (second-order rate constant for inhibition) is 93000 M⁻¹ s⁻¹.

“FIXa-Y155F/R338E/T343R/R403E/E410N (from UniProt P00740 47-191; P00740 227-461) (enzyme)”: the kapp (second-order rate constant for inhibition) stood at 280000 M⁻¹ s⁻¹.

In turn, “FIXa-Y155F/R338E/T343R/R403E/E410S (from UniProt P00740 47-191; P00740 227-461) (enzyme)” returned a kapp (second-order rate constant for inhibition) of 220000 M⁻¹ s⁻¹.
